Ends that are not written are not given here.
Experiments:
[1] = Systemic parameters: pulse and blood pressure RR syst./diast. during PACAP infusion; format: in vivo, human
From the text: To test whether these prominent effects in human skin (erythema, edema) and difference in skin temperature [ΔT(° C.)] were due to a local vascular effect and not due to a secondary systemic effect we measured systemic parameters such as pulse (B/min) and blood pressure RR syst./diast. (mm Hg). […] Thus, PACAP-induced changes are most likely due to a local effect in cutaneous vasculature.

VPAC1R = biological target: T1, VPAC1R (Homo sapiens, UniProt P32241); assay: In vitro measurement of cAMP activation in HDMEC; format: cell-based
T1 construct: To confirm that HDMEC express functional VPAC1R, we kept HDMEC in FCS/nutrient deficient medium for 24 h; endogenous in cells; host or cells: HDMEC (human dermal microvascular endothelial cells)
T1 sequence (P32241 31-457): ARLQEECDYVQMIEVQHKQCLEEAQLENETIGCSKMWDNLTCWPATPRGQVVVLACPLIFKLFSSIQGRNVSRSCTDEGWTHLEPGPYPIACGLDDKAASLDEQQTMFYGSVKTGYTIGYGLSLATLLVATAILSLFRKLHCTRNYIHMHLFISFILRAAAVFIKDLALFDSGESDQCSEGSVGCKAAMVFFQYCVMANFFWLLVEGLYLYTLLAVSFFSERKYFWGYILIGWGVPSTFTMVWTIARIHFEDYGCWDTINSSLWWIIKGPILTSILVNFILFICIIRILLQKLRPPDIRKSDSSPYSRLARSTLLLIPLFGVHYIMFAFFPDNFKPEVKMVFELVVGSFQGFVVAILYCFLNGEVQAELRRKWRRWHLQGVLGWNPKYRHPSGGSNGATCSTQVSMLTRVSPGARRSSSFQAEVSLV
Description: For example, Human Dermal Microvascular Endothelial cells (HDMEC) can be grown in endothelial cell growth medium. Lyophilized PACAP1-38 can be diluted in the appropriate volume of HDMEC assay medium immediately prior to use. IBMX (3-Isobutyl-1-Methylxanthin) can be added to the medium as a phosphodiesterase inhibitor in order to measure all the intracellular built cAMP after receptor stimulation without the intrinsic phosphdiesterase cleaving some of it. After 24 h cells can be harvested and extracted with 65% ethanol in PBS which can be lyophilized and the cAMP concentration can be examined using a cAMP EIA-direct assay (Amersham Pharmacia Biotech).
Pretreatment with antagonist was 3 min before agonist stimulation. […] Experiments were performed at least three times). IBMX (3-Isobutyl-1-Methylxanthin; 4 mM) was added to the medium as a phosphodiesterase inhibitor in order to measure all the intracellular built cAMP after receptor stimulation without the intrinsic phosphodiesterase cleaving some of it.

HDMEC = assay: ELISA for NO release by HDMEC; format: cell-based, human
From the text: In an alternative approach, the determination of the activity of PACAP signalling pathway can be carried out using an Enzyme-Linked Immunosorbent Assay (ELISA) for nitric oxide (NO) production in HDMEC. To study cytokine release by HDMEC after PACAP stimulation, cells can be stimulated as described above and supernatants can be collected and frozen until use for ELISA assays. For the detection of NO release, NO-ELISA kits, for example from BioSource Int. can be used.
PACAP-induced release of NO in HDMEC. After finding that HDMEC express functional VPAC1R and that VPAC1R is the crucial receptor in human skin epithelium on the protein level, we examined whether PACAP is capable of releasing NO from HDMEC at similar concentrations. Therefore, we performed specific ELISAs with supernatants collected at time-points between […] (FIG. 12). Indeed, PACAP (10^−9 M) induced the release of NO (582%+/−25) by HDMEC as compared to control with a maximal effect at 15 min.

human skin [2] = assay: Skin temperature (ST) in human volunteers before and after intravenous peptide application; format: in vivo
Description: First, the skin temperature (ST) was measured in different human body regions before and after continuous intravenous application of 100 pmol/kg b.w./h PACAP1-27. Under basal conditions a ST of 33.51±0.25° C. was measured at 0 min. Differences of ST [ΔT(° C.)] were measured after 5, 15, 30, 45, 60 min (FIG. 1: Changes in skin temperature [ΔT(° C.)] as compared to basal (0=33.51±0.25° C.) before and after continuous infusion of 100 pmol/kg b.w./h PACAP1-27 Mean±SEM, *=p<0.05 (n=10)). […] This increase persisted even after 30 min although less dramatic (+1.8° C.±0.26). […] This PACAP-induced effect in human skin was dose-dependent (FIG. 2: Changes in skin temperature [ΔT(° C.)] as compared to basal after continuous infusion of 7.5, 15, or 30 pmol/kg b.w./h PACAP1-27. Mean±SEM, *=p<0.05 (n=9). Mean time until first flush symptoms occurred was 46.03±5.30 min.). […] Next, ST was measured in different body regions before and after a bolus injection of […] PACAP1-27. […] Changes in skin temperature [ΔT(° C.)] as compared to basal ([…]=33.51±0.25° C.) under different conditions of continuous infusion and concentrations (◯=1 μg/kg b.w./h PACAP1-27; o=100 pmol/kg b.w./h). Mean±SEM, *=p<0.05 (n=10)). […] Mean±SEM, *=p<0.05 (n=7)).

human skin [3] = assay: Flush phenomenon (erythema, edema) in volunteers after intravenous PACAP1-27; format: in vivo
Description: B) Flush phenomenon in a probationer after intravenous application of PACAP1-27. Note cutaneous erythema and facial as well as a marked periorbital edema 30 min after application). […] The approximate duration when first signs of a “flush” occurred were 46.03±5.3 min with 100 pmol/kg b.w./h PACAP1-27. The erythema persisted approximately for 6 h.

VPAC1R mRNA = assay: Semiquantitative RT-PCR of VPAC1R mRNA in HDMEC; format: cell-based, human; settings: 6 h
Description: To verify our immunohistochemical observation on the mRNA level that the PACAP-induced effects in human dermal endothelial cells are mediated via VPAC1R, we performed RT PCR analysis for VPAC1R, VPAC2R and PAC1R in HDMEC (FIG. 11. Semiquantitative RT-PCR and gel electrophoresis of VPAC1R (FIG. 11A), PAC1R (FIG. 11B) and β-actin (FIG. 11C) in HDMEC. M=marker; lane 1: unstimulated HDMEC; lane 2: TNFα stimulated (4 ng/ml) HDMEC; lane 3 (11A): LPS-stimulated (10 ng/ml) HDMEC; lane 3 (11 B and 11C): HNK cells as positive control; lane 4: RT-control (negative control) In non-stimulated HDMEC cells, mRNA message was only found for PACAP and VPAC1R (FIG. 11A), but not PAC1R (FIG. 11B;) and VPAC2R (data not shown). Note that the PAC1R signal is positive in HNK cells that were used as a positive control. To examine whether proinflammatory mediators such as TNFα or LPS are capable of regulating VPAC1R mRNA expression, HDMEC were harvested without or 6 h after stimulation with TNFα (concentration: 4 ng/ml) or LPS (concentration: 10 ng/ml), respectively, and semiquantitative RT PCR was performed (FIG. 11). To consider the relative mRNA amount in the samples amplification of the housekeeping gene β-actin served as an internal control (FIG. 11C), TNFα as well as LPS induced upregulation of VPAC1R mRNA as compared to the unstimulated controls (FIG. 11). […]

[4] = 30 min, change from 7.5 to 15 pmol/kg/h
[5] = 60 min, change from 15 to 30 pmol/kg/h

## Pituitary adenylate cyclase activating polypeptide [PACAP]
[1]; 5 min, infusion 7.5 pmol/kg/h
  R diastol.: 72 ± 4 mmHg
  R systol.: 107 ± 4 mmHg
  pulse: 64 ± 3 B/min
[1]; 15 min, infusion 7.5 pmol/kg/h
  R diastol.: 75 ± 3 mmHg
  R systol.: 109 ± 4 mmHg
  pulse: 66 ± 4 B/min
[1]; [4]
  R diastol.: 75 ± 3 mmHg
  R systol.: 111 ± 5 mmHg
  pulse: 68 ± 3 B/min
[1]; 35 min, infusion 15 pmol/kg/h
  R diastol.: 74 ± 4 mmHg
  R systol.: 111 ± 5 mmHg
  pulse: 69 ± 3 B/min
[1]; 45 min, infusion 15 pmol/kg/h
  R diastol.: 74 ± 4 mmHg
  R systol.: 111 ± 5 mmHg
  pulse: 73 ± 4 B/min
[1]; [5]
  R diastol.: 74 ± 3 mmHg
  R systol.: 111 ± 5 mmHg
  pulse: 69 ± 3 B/min
[1]; 65 min, infusion 30 pmol/kg/h
  R diastol.: 74 ± 3 mmHg
  R systol.: 109 ± 5 mmHg
  pulse: 71 ± 3 B/min
[1]; 75 min, infusion 30 pmol/kg/h
  R diastol.: 74 ± 3 mmHg
  R systol.: 110 ± 5 mmHg
  pulse: 72 ± 2 B/min
[1]; 90 min (end of infusion)
  R diastol.: 72 ± 4 mmHg
  R systol.: 109 ± 5 mmHg
  pulse: 69 ± 3 B/min
[1]; 100 min, after end of infusion
  R diastol.: 73 ± 4 mmHg
  R systol.: 109 ± 5 mmHg
  pulse: 66 ± 4 B/min
[1]; 110 min, after end of infusion
  R diastol.: 72 ± 4 mmHg
  R systol.: 109 ± 4 mmHg
  pulse: 68 ± 4 B/min
[1]; 120 min, after end of infusion
  R diastol.: 74 ± 3 mmHg
  R systol.: 112 ± 4 mmHg
  pulse: 71 ± 4 B/min
[1]; during and after infusion
  differences in RR syst./diast. or pulse: No measurable differences
VPAC1R; 10^−9 M, IBMX 4 mM
  cAMP activation compared to the negative control: more than 4 fold
VPAC1R; FIG. 10
  activation of VPAC1R in HDMEC (cAMP): dose-dependent activation
HDMEC; 10^−9 M
  release of NO as compared to control: 582%
  time of maximal effect on NO release: 15 min
HDMEC; with TNFα
  NO release on incubation together with TNFα, versus TNFα alone: additive effect

## PACAP1-27
Human skin [2]; bolus 1 μmol/kg b.w./h compared with continuous 100 pmol/kg b.w./h
  increase of skin temperature, bolus versus continuous infusion: significantly higher increase of ST
Human skin [2]; bolus injection 1 μmol/kg b.w./h, maximum after 30 min, n=8
  maximum increase of skin temperature ΔT vs basal: 2.7 °C
Human skin [2]; bolus injection, after 60 min
  skin temperature course after bolus: slight decrease of ST
Human skin [2]; bolus injection, after 120 min
  skin temperature compared to basal: still elevated
Human skin [2]; continuous i.v. 100 pmol/kg b.w./h, after 5 min, n=10, mean±SEM
  increase of skin temperature ΔT vs basal: 1.2 °C
Human skin [2]; continuous i.v. 100 pmol/kg b.w./h, after 30 min, n=10, mean±SEM
  increase of skin temperature ΔT vs basal: 1.8 °C
Human skin [2]; continuous i.v. 100 pmol/kg b.w./h, between 30 and 60 min
  further increase of skin temperature compared to 30 min: no significant increase of ST
Human skin [2]; i.v. infusion 7.5 pmol/kg b.w./h over 30 min, n=9
  increase of skin temperature ΔT vs basal: 1.25 °C
Human skin [2]; i.v. infusion 15 pmol/kg b.w./h, n=9
  increase of skin temperature ΔT vs basal: 2.1 °C
Human skin [2]; i.v. infusion 30 pmol/kg b.w./h, n=9
  increase of skin temperature ΔT vs basal: 2.4 °C
Human skin [2]; immediately after infusion of 30 pmol/kg b.w./h was stopped
  skin temperature after stop of infusion: slowly decreased
Human skin [3]; 100 pmol/kg b.w./h
  approximate duration when first signs of a flush occurred: 46.03 ± 5.3 min
Human skin [3]; FIG. 2: continuous infusion of 7.5, 15, or 30 pmol/kg b.w./h, n=9
  mean time until first flush symptoms occurred: 46.03 ± 5.30 min
Human skin [3]; after i.v. application
  persistence of erythema: ~6 h
Human skin [3]; all participants, bolus and continuous infusion
  erythema (flushing) and edema compared to control injections: significant development of erythema (flushing) and edema
Human skin [3]; i.v. application
  healthy volunteers in whom the effect was dominant in the face and upper trunk: nine out of ten

## LPS
VPAC1R mRNA; 10 ng/ml
  VPAC1R mRNA compared to unstimulated controls: upregulation

## TNFα
VPAC1R mRNA; 4 ng/ml
  VPAC1R mRNA compared to unstimulated controls: upregulation

## vasoactive intestinal peptide (HSDAVFTDNYTRLRKQMAVKKYLNSILN; ends and bridges not checked; UniProt P01282 125-152, looked up) [VIP1-28]
Human skin [2]; i.v. infusion 20 pmol/kg b.w./h, n=7
  increase of skin temperature vs basal: did not result in a significant increase of ST
Human skin [2]; i.v. infusion 100 pmol/kg b.w./h, maximum after 60 min, n=7
  increase of skin temperature ΔT vs basal: 1.36 °C

## PACAP6-27 (FTDSYSRYRKQMAVKKYLAAVL; ends and bridges not checked; UniProt P18509 137-158, looked up, fragment)
VPAC1R; 10^-7 M (100× the agonist), pretreatment 3 min before agonist
  effect on agonist-induced cAMP activation: cut in half
HDMEC; preincubation before PACAP
  PACAP-induced NO release after antagonist preincubation (value in brackets): 79+/−22
  effect of preincubation on PACAP-induced NO release: slightly enhanced
HDMEC; with TNFa
  NO release when TNFa was incubated with the antagonist: significantly lower

From patent US20110229423A1 (Galderma Research & Development, priority 2008, published 2011)
